Entries after “also recorded” stand apart in the source; their conditions may differ.
Legend:
MDA-MB-231 cells = test: In vitro killing assay: human neutrophils co-cultured with luciferase labelled MDA-MB-231 cells; format: cell-based; conditions: naïve human neutrophils:tumor cells 1:1, chemokine 100 ng/ml (rhG-CSF 20 ng/ml), overnight
Text: Luciferase is under a constitutive promoter so cell death results in a decrease in luciferase activity because there is no transcription/translation of the lucierferase gene. The assay itself requires lysing of the cell to release the luciferase to mix with the luciferin and measure the luminescence. But it isn't that they dying cell releases luciferase. More signal means more luciferase which means more live cells. […]. […] Nave human neutrophils were co-cultured with MDA-MB-231 cells. […] Cells were seeded at a ratio of human neutrophils:human tumor cells=1:1.
Antibodies used for immunohistochemistry—MMP9, F4/80 and CCR2 (all from AbCam), Myeloperoxidase (Dako), Ly-6G and Cd11b (both from BD), and Cleaved Caspase 3 (Cell signalling). Antibodies used for western blotting—Actin (Sigma), CCL2 (AbCam) and CCL5 (R&D) p-SMAD2 (cell signalling). Antibodies used for FACS analysis FITC-Ly-6G, FITC-Cd11b, FITC-F4/80, FITC-Cd34 and FITC-c-Kit (all from BD) and VEGFR1-AP (R&D). Neutrophil Depletion Neutrophil depletion was achieved using daily IP injections of 12.5 μg Rat anti-Gr-1 antibody (BD) or Rat anti-Ly-6G antibody (BD) starting on day 3 post tumour engraftment. Starting on day 14, neutrophil depleting antibodies were administered twice daily. Control mice were injected with […] Rat isotype control (BD). Neutrophil depletion was monitored by manual blood differentials and FACS analysis. Flow Cytometry Peripheral blood was collected into EDTA-coated tubes, washed and resuspended in FACS buffer solution (PBS, 2% heat-inactivated FCS, 5 mM EDTA, and 0.02% sodium azide). The samples were blocked with […] and then incubated with fluorophore-conjugated antibodies. Erythrocytes were then lysed with FACS lysing solution (BD Biosciences) and the cell suspensions were analyzed on a FACSCalibur (BD Biosciences). Colony Formation Assay Female nude mice were orthotopically injected with 5×10^6 puromicin resistant 4T1 cells. On days 7 and 14 post tumour engraftment the mice were sacrificed and perfused with PBS. The lungs and livers were removed, washed with PBS and dissociated with Collagenase A (Roche). The single cell suspension was then plated onto puromicin containing media and selected for 14 day. Colonies were stained with Methylene-Blue and counted manually. Mouse Neutrophil Purification Whole blood was collected by cardiac puncture using heparinized (Sigma) syringe. The blood was diluted with 5 volumes of PBS containing 0.5% BSA and subjected to a discontinuous Histopaque (Sigma) gradient (1.077 and 1.119). Neutrophils were collected from the 1.077-1.119 interface, lymphocytes and monocytes collected from the plasma-1.077 interface. RBCs were eliminated by hypotonic lysis. The cells were washed twice with PBS-BSA and re-suspended in OptiMEM (Invitrogen) 0.5% FBS in a final concentration of 2×10^6 cells/ml. Neutrophil purity and viability were determined visually and were consistently >98%. Human Neutrophil Purification As part of a Memorial Sloan-Kettering Cancer Center institutionally approved protocol, blood samples (˜10 cc) were collected from healthy volunteers or from patients who were already having blood drawn for pre-surgical testing. Patients were consented accordingly as part of the approved protocol. […] Patients had either mastectomies or lumpectomies planned and had blood drawn prior to definitive surgical removal of their primary tumor or chemotherapy. Blood samples were transferred to the lab for analysis no more than 1 hour post-blood draw. Heparinzed blood (20 U/ml final) was mixed with an equal volume of Dextran 500 (3% in saline) and incubated 30 minutes at room temperature. The leukocyte-rich supernatant was layered on top of histopaque 1077 (Sigma) and centrifuged. Neutrophils, collected in the pellet fraction, were resuspended in 10 ml 0.2% NaCl for 30 seconds to remove contaminating erythrocytes. Isotonicity was restored by the addition of 10 ml 1.6% NaCl. […]

neutrophils = test: In vivo rhG-CSF administration (neutrophil mobilization and lung sequestration); set-up: species or system mouse; conditions: mice
Description: Mice were orthotopically injected with 5×10^6 luciferase labelled 4T1 cells. 24 hours later Apocynin (2.4 g/liter) was administered in sugar sweetened drinking water. Control animals were treated with sugar sweetened water. Drinking water for both Apocynin treated and control mice were replaced every two days. Time-Lapse Microscopy 20,000 4T1 cells were labelled with CellTracker-Red (molecular Probes) according to the manufacturer instructions and plated on a chamber slide. 4 hours later, 400,000 neutrophils, isolated from 4T1 tumour-bearing Balb/c Ube-GFP mice, were added to the culture. Live imaging of Caspase 3 activation was done by labelling the tumour cells with the Caspase 3 substrate NucView 488 (Biotium) prior to the addition of GFP negative TENs. Images were taken every 10 minutes using the MetaMorph imaging system. Neutrophil Transfer Female nude mice were injected with 5×10^4 luciferase labelled 4T1 cells to the tail vein. 4 hours later, the mice were injected with 5×10^6 TENs or G-CSF mobilized neutrophils into the tail vein. Control mice were injected with vehicle. Formation of lung metastases was monitored using the IVIS-200 optical in vivo imaging system. Chemokine Administration rhG-CSF (Neupogen, Amgen) was administered daily (250 microg/kg/day) s.c. for 4 consecutive days. In vitro neutrophil stimulation—neutrophils were isolated from naïve mice and co-cultured with tumour cells in the presence of mCCL2, mCCL5 (both from R&D) or rhG-CSF (all at 20 ng/ml) or with TGF-Beta (R&D) (up to 200 pMolar). Human neutrophils purified from healthy volunteers were stimulated in vitro with hCCL2, hCCL5, hCCL3, hCCL4, hCXCL1, hCXCL12 and hCXCL16 (all from R&D at 100 ng/ml) or with rhG-CSF (20 ng/ml). Statistical Analysis For statistical analysis, the data is presented as mean±SEM and were analyses using Students t tests. Differences were considered significant when p<0.05.
In vivo administration of Apocynin: Mice were orthotopically injected with 5×10^6 luciferase labelled 4T1 cells. […] Formation of lung metastases was monitored using the IVIS-200 optical in vivo imaging system. […]

B1: rhG-CSF: recombinant methionyl human granulocyte colony-stimulating factor (Neupogen, Amgen) (protein, chains of the INN, looked up)
chain: MTPLGPASSLPQSFLLKCLEQVRKIQGDGAALQEKLCATYKLCHPEELVLLGHSLGIPWAPLSSCPSQALQLAGCLSQLHSGLFLYQGLLQALEGISPELGPTLDTLQLDVADFATTIWQQMEELGMAPALQPTQGAMPAFASAFQRRAGGVLVASHLQSFLEVSYRVLRHLAQP
modifications: N-terminal methionine
neutrophil cytotoxicity / neutrophil mediated killing of MDA-MB-231 cells (MDA-MB-231 cells): does not induce neutrophil mediated cell killing
circulating neutrophils after rhG-CSF administration (neutrophils; 250 μg/kg/day s.c.): significant increase in circulating and lung-associated neutrophils; also recorded: significant increase in circulating and lung-associated neutrophil numbers
increase of circulating neutrophil numbers (neutrophils; 250 ug/kg/day s.c. for 4 consecutive days): 2-4 fold
lung-associated neutrophils (Ly-6G or myeloperoxidase immunohistochemistry) (neutrophils; rhG-CSF administration): increase in lung-associated neutrophils

— patent US9199028B2, “Use of entrained neutrophils to treat metastatic and micrometastatic disease in at risk patients” (MEMORIAL SLOAN-KETTERING CANCER CENTER, priority 2010, dated 2015)
